Key:
[1] = target: Myc-GST融合蛋白 (Myc标签与谷胱甘肽融合的蛋白); assay: ELISA, Myc-GST coated at 5 μg/mL, HRP anti-His secondary antibody; heat test at 70℃
[2] = target: Myc-GST融合蛋白 (Myc标签与谷胱甘肽融合的蛋白); assay: ELISA, Myc-GST coated at 5 μg/mL, HRP anti-His secondary antibody; heat test at 90℃
[3] = target: Myc-GST融合蛋白 (Myc标签与谷胱甘肽融合的蛋白); assay: ELISA, Myc-GST coated at 5 μg/mL, HRP anti-His secondary antibody; heat test at 80℃

OD450 [1]: 1.5 OD450
OD450 [2]: 1.1 OD450
OD450 [3]: 1.2 OD450
B1: 抗c-Myc标签单域重链抗体 (anti-c-Myc tag single-domain heavy-chain antibody) (VHH, not shown: small tags and cut ends)
VHH: QLQLVESGGGEVQAGGSLKLSCAASGSNVQISAMGWYRQVPGKQREFVASETNGGRIDYADFVEGRFTISRDRAKNTVYLQMTSLRPEDTAVYYCNAAPGGWYADLREEYWGKGTLVTVSS

Reference: patent CN107042090A
